In IntAct's records for PubMed 20080638:

B1: BBSome complex assembly protein BBS10 (Homo sapiens), Q8TAM1 (parent)
chain: MLSSMAAAGSVKAALQVAEVLEAIVSCCVGPEGRQVLCTKPTGEVLLSRNGGRLLEALHLEHPIARMIVDCVSSHLKKTGDGAKTFIIFLCHLLRGLHAITDREKDPLMCENIQTHGRHWKNCSRWKFISQALLTFQTQILDGIMDQYLSRHFLSIFSSAKERTLCRSSLELLLEAYFCGRVGRNNHKFISQLMCDYFFKCMTCKSGIGVFELVDDHFVELNVGVTGLPVSDSRIIAGLVLQKDFSVYRPADGDMRMVIVTETIQPLFSTSGSEFILNSEAQFQTSQFWIMEKTKAIMKHLHSQNVKLLISSVKQPDLVSYYAGVNGISVVECLSSEEVSLIRRIIGLSPFVPPQAFSQCEIPNTALVKFCKPLILRSKRYVHLGLISTCAFIPHSIVLCGPVHGLIEQHEDALHGALKMLRQLFKDLDLNYMTQTNDQNGTSSLFIYKNSGESYQAPDPGNGSIQRPYQDTVAENKDALEKTQTYLKVHSNLVIPDVELETYIPYSTPTLTPTDTFQTVETLTCLSLERNRLTDYYEPLLKNNSTAYSTRGNRIEISYENLQVTNITRKGSMLPVSCKLPNMGTSQSYLSSSMPAGCVLPVGGNFEILLHYYLLNYAKKCHQSEETMVSMIIANALLGIPKVLYKSKTGKYSFPHTYIRAVHALQTNQPLVSSQTGLESVMGKYQLLTSVLQCLTKILTIDMVITVKRHPQKVHNQDSEDEL
partner: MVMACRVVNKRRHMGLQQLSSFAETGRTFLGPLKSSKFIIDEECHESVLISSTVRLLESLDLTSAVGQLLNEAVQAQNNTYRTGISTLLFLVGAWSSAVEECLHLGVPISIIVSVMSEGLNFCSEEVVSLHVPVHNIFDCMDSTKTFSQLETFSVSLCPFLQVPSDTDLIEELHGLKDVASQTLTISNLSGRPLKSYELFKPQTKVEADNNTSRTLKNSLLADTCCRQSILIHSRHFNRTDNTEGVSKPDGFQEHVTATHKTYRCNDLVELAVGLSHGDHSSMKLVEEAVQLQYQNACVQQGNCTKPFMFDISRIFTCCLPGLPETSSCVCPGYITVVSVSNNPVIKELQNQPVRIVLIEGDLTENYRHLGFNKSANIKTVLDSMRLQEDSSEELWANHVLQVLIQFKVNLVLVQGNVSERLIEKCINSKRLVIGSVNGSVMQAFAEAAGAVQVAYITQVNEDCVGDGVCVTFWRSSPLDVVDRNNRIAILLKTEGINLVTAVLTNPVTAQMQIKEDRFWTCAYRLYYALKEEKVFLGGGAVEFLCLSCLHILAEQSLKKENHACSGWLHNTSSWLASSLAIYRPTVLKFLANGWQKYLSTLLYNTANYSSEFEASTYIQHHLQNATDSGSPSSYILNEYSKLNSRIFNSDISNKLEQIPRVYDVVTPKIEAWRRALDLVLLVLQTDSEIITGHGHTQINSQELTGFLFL
B2: BBSome complex assembly protein BBS10 (Homo sapiens), Q8TAM1 (parent)
chain: B1 chain
partner: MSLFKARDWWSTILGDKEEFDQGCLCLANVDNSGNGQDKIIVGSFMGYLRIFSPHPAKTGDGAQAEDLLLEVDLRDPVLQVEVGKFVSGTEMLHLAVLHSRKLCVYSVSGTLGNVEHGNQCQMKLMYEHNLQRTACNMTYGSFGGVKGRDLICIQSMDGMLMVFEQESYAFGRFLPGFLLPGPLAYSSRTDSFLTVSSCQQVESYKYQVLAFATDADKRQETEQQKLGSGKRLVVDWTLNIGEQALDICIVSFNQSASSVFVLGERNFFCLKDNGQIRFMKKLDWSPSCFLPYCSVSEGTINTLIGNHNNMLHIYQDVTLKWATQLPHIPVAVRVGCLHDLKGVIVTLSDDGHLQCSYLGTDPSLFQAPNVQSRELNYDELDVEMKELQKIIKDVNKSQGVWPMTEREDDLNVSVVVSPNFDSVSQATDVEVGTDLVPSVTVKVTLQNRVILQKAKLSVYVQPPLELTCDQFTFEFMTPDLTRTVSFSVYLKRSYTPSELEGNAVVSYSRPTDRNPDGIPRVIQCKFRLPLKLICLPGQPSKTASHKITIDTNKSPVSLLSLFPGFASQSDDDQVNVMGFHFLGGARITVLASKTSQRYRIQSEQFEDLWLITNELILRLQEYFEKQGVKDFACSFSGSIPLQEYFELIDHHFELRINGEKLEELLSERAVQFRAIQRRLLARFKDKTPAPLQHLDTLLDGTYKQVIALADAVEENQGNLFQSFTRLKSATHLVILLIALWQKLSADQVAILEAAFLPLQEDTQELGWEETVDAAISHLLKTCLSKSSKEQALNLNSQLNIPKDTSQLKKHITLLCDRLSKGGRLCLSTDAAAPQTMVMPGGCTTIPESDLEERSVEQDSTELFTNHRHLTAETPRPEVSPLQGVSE
B3: Chaperonin-containing T-complex member BBS12 (Homo sapiens), Q6ZW61 (parent)
chain: B1 partner
partner: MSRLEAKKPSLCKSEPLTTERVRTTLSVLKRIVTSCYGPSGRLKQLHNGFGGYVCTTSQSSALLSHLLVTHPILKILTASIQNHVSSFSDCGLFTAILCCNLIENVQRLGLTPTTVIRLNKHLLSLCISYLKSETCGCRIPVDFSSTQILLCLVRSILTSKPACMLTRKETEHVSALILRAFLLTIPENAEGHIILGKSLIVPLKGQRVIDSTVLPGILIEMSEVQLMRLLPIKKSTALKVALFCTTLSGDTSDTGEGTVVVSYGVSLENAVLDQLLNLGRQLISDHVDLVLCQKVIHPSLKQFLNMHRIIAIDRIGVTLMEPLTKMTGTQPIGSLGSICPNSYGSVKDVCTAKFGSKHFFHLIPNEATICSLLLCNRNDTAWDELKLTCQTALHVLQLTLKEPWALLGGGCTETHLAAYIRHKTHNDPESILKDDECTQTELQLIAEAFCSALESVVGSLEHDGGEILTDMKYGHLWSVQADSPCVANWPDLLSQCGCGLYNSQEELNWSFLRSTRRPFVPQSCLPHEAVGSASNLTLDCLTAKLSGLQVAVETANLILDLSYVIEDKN
B4: BBSome complex assembly protein BBS10 (Homo sapiens), Q8TAM1 (parent)
chain: B1 chain
partner: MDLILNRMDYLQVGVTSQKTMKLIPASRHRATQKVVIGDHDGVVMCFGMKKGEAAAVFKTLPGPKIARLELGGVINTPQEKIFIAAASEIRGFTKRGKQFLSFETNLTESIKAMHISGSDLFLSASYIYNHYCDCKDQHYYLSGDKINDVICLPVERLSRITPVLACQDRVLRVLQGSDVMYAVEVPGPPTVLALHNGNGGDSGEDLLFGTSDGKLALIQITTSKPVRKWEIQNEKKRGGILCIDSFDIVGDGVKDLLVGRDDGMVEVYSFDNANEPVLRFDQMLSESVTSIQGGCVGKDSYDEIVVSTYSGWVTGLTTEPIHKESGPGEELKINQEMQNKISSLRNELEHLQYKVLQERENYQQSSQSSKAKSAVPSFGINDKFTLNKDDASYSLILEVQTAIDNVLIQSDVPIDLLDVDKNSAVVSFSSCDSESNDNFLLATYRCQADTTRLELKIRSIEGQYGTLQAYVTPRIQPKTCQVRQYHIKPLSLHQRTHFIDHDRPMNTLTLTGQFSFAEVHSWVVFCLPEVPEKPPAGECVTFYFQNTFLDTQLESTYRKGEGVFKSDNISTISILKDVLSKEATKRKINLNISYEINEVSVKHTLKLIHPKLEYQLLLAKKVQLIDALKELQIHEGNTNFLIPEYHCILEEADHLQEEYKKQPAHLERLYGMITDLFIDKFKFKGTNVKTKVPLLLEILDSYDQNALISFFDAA
B5: Molecular chaperone MKKS (Homo sapiens), Q9NPJ1 (parent)
chain: B3 partner
partner: B1 partner

Variants of: B1
Conditions: with bbs12_human BBS12, Q6ZW61

Variant	effect of a mutation on the interaction
D81N	decreasing interaction
S329L	decreasing interaction

The remaining lines, values ahead:

effect of a mutation on the interaction	Variant
decreasing interaction	V240G
decreasing interaction	S311A

Variants of: B2
Conditions: with pthb1_human BBS9, Q3SYG4

Variant	effect of a mutation on the interaction
D81N	decreasing interaction
R49W	decreasing interaction

Variants of: B3
Conditions: with mkks_human MKKS

Variant	effect of a mutation on the interaction
I346T	disrupting interaction
T501M	decreasing interaction
G540V	decreasing interaction

Variants of: B4
Conditions: with bbs7_human BBS7, Q8IWZ6

Variant	effect of a mutation on the interaction
R34P	decreasing interaction
V240G	decreasing interaction
D81N	decreasing interaction

Variants of: B5
Conditions: with bbs12_human BBS12, Q6ZW61

Variant	effect of a mutation on the interaction
T57A	decreasing interaction
